Assay [1] has as its system GFP-A549 lung cancer cells. Put plainly: 3D-printed directional cell migration chamber, EGF capsules, A549. The class given is cell-based. The text has this:
In the example experiment illustrated in FIG. 14, a droplet of fibrin loaded with GFP-A549 lung cancer cells 1400 was printed between linear arrays of chemoattractant capsules 1404 (right) and blank control capsules 1402 (left). The printed droplet defined the primary site of the tumor cells 1400. To generate a long-lasting EGF gradient, capsules 1402 and 1404 were ruptured sequentially at 2-day intervals, starting with the capsule 1408A closest to the cell 1400. Concomitantly, a corresponding control capsule 1408B was also ruptured. The resulting EGF gradient and GFP-A549 response to the gradient is discussed below with respect to FIGS. 15A-17.
FIG. 15B is panoramic fluorescence images illustrating distribution of the GFP-expressing A549 cells of FIG. 15A over time during days 6-10 post-laser rupture of the EGF-containing programmable-release capsules of FIG. 15A. […]
FIG. 16 is a graphical representation of cellular fluorescence intensity of example EGF-expressing A549 cells vs time, with and without EGF release from example programmable-release capsules within a cell migration chamber in accordance with examples of this disclosure. […] The cellular growth rates were first quantitatively compared between samples with and without laser-triggered release of EGF by directly analyzing the fluorescence intensity of GFP-expressing cells. […]

Assay [2] has as its system GFP-expressing M4A4 cells (a melanoma cell line). Put plainly: 3D-printed directional cell migration chamber, EGF capsules, M4A4. It is filed as cell-based. To be noted: EGF capsules sequentially ruptured over 10 days. The text has this: (§1) FIG. 21 is a graphical representation of relative selective directed migration of A549 tumor cells, M4A4 tumor cells, and non-tumor HUVEC cells of FIGS. 20A and 20B in response to laser rupture of the EGF-containing programmable release capsules within an example cell migration chamber in accordance with examples of this disclosure. FIG. 21 illustrates distributions of GFP-A549s, GFP-M4A4s, and RFP-HUVECs on day 10, showing the selective directed migration of tumor cells but not HUVECs (mean±s.d., n=4 per group). Scale bar: 500 μm.

Assay [3] concerns RFP-expressing HUVEC cells. Put plainly: 3D-printed directional cell migration chamber, EGF capsules, HUVEC. It is filed as cell-based, human. To be noted: EGF capsules sequentially ruptured over 10 days.
From the text: as §1

Assay [4] relates to A549 cells in HUVEC-lined conduit. Put plainly: Vascularized extravasation model, EGF capsules. The class given is cell-based. The conditions noted are these: EGF gradients from ruptured capsules, fibroblast-laden gel, by day 4. The source says: FIG. 24A is confocal images of a top view and a side view of a representative microchannel lined by HUVECs within a fibrin gel, such as in the context of the example 3D-printed culture chamber of FIG. 23. FIG. 24B is a fluorescence image of a representative microchannel lined by HUVECs and perfused by fluorescent fluid. In the example of FIG. 24A, a microchannel was created using the pin-molding technique within the fibrin gel of the culture chamber. […]
FIG. 26A is fluorescence images of a conduit of an example vascularized 3D-printed culture chamber illustrating guided extravasation of A549s and subsequent metastases generated over time on days 0 and 2 following the programmable release of EGF from EGF-containing programmable release capsules in accordance with examples of this disclosure. FIG. 26B is fluorescence images of the conduit of FIG. 26A illustrating guided extravasation of A549s and subsequent metastases generated over time on days 4 and 6 following laser-triggered rupture of EGF-containing programmable-release capsules (inset: fluorescence image showing transendothelial formation of metastasis). […]
FIG. 27 is fluorescence images showing the vascularized extravasation model of FIG. 26 after A549s were injected within the conduit without rupture of EGF capsules. […]

B1: EGF: EGF, a chemoattractant of carcinoma cells, encapsulated in programmable-release capsules (protein, UniProt P01133 23-1207, looked up)
Pro-epidermal growth factor: PQHWSCPEGTLAGNGNSTCVGPAPFLIFSHGNSIFRIDTEGTNYEQLVVDAGVSVIMDFHYNEKRIYWVDLERQLLQRVFLNGSRQERVCNIEKNVSGMAINWINEEVIWSNQQEGIITVTDMKGNNSHILLSALKYPANVAVDPVERFIFWSSEVAGSLYRADLDGVGVKALLETSEKITAVSLDVLDKRLFWIQYNREGSNSLICSCDYDGGSVHISKHPTQHNLFAMSLFGDRIFYSTWKMKTIWIANKHTGKDMVRINLHSSFVPLGELKVVHPLAQPKAEDDTWEPEQKLCKLRKGNCSSTVCGQDLQSHLCMCAEGYALSRDRKYCEDVNECAFWNHGCTLGCKNTPGSYYCTCPVGFVLLPDGKRCHQLVSCPRNVSECSHDCVLTSEGPLCFCPEGSVLERDGKTCSGCSSPDNGGCSQLCVPLSPVSWECDCFPGYDLQLDEKSCAASGPQPFLLFANSQDIRHMHFDGTDYGTLLSQQMGMVYALDHDPVENKIYFAHTALKWIERANMDGSQRERLIEEGVDVPEGLAVDWIGRRFYWTDRGKSLIGRSDLNGKRSKIITKENISQPRGIAVHPMAKRLFWTDTGINPRIESSSLQGLGRLVIASSDLIWPSGITIDFLTDKLYWCDAKQSVIEMANLDGSKRRRLTQNDVGHPFAVAVFEDYVWFSDWAMPSVMRVNKRTGKDRVRLQGSMLKPSSLVVVHPLAKPGADPCLYQNGGCEHICKKRLGTAWCSCREGFMKASDGKTCLALDGHQLLAGGEVDLKNQVTPLDILSKTRVSEDNITESQHMLVAEIMVSDQDDCAPVGCSMYARCISEGEDATCQCLKGFAGDGKLCSDIDECEMGVPVCPPASSKCINTEGGYVCRCSEGYQGDGIHCLDIDECQLGEHSCGENASCTNTEGGYTCMCAGRLSEPGLICPDSTPPPHLREDDHHYSVRNSDSECPLSHDGYCLHDGVCMYIEALDKYACNCVVGYIGERCQYRDLKWWELRHAGHGQQQKVIVVAVCVVVLVMLLLLSLWGAHYYRTQKLLSKNPKNPYEESSRDVRSRRPADTEDGMSSCPQPWFVVIKEHQDLKNGGQPVAGEDGQAADGSMQPTSWRQEPQLCGMGTEQGCWIPVSSDKGSCPQVMERSFHMPSYGTQTLEGGVEKPHSLLSANPLWQQRALDPPHQMELTQ
modifications: Pro-epidermal growth factor encapsulated in programmable-release capsules
Regarding B1, the “maximum cell velocity of leading A549 cells” value in assay [1] (guidance of EGF cues from sequentially laser-ruptured capsules in fibrin gel, x-direction displacement, mean±s.d., n=4) was determined as 15.48±1.05 μm/h. Besides, the “growth (proliferation) of tumor cells, cellular fluorescence intensity” value in assay [1] (laser-triggered EGF release vs no release, 10 days) is on record as “accelerated”. Further, the “directed migration of M4A4 cells” value in assay [2] is given as “exhibited directional movement”. Also, in assay [3], the “migratory response of HUVECs to EGF gradients” value is recorded as “negative migratory response”. The “transendothelial behavior (extravasation) of A549s” value in assay [4] was “cells underwent both extravasation and proliferation”.

The record behind these values is US11781101B2, “3D-printed models of biological microenvironments” (Regents of the University of Minnesota, priority 2018, dated 2023).
